The results in this text go back to US20260167721A1.

The target of assay [1] is human CD3 (on human Pan-T cells or donor PBMC) (human) (UniProt P07766). As to the kind of experiment: cell-based or functional assay.
In assay [2] the target is human CD3 (on the surface of Jurkat wild-type cells and of human Pan T cells) (human) (UniProt P07766). As to the kind of experiment: flow cytometry, isotype control antibody on Jurkat WT cells.
Assay [3] shares this target. As to the kind of experiment: flow cytometry, isotype control antibody on human Pan T cells.
The target in assay [4] is RT3-T3.5 (TCR-KO) cells. As to the kind of experiment: flow cytometry, isotype control antibody on RT3-T3.5 (TCR-KO) negative control cells. On the technique in general: Flow cytometry measures light scatter and fluorescence of single cells or particles in a stream.
Assay [5] addresses human CD3 (TCR/CD3 complex on the cell surface) (human) (UniProt P07766). As to the kind of experiment: flow cytometry, Pan-T cells, 1 ug/mL.
For assay [6] the target is unchanged. As to the kind of experiment: flow cytometry, Pan-T cells, 10 ug/mL.
For assay [7] the target is unchanged. As to the kind of experiment: flow cytometry, Jurkat WT cells, 1 ug/mL.
The target is the same in assay [8]. As to the kind of experiment: flow cytometry, Jurkat WT cells, 10 ug/mL.
In assay [9] the target is human CD3 (on the surface of Jurkat wild-type cells and of human Pan T cells) (human) (UniProt P07766). As to the kind of experiment: flow cytometry, control antibody on Jurkat WT cells.
Assay [10] has the same target. As to the kind of experiment: flow cytometry, control antibody on human Pan T cells.
Assay [11] concerns the target CD3 on Jurkat wild-type cells (UniProt P07766). As to the kind of experiment: flow cytometry on Jurkat WT cells, antibody at 1 ug/ml.
For assay [12] the target is unchanged. As to the kind of experiment: flow cytometry on Jurkat WT cells, antibody at 10 ug/ml.
Assay [13] addresses human CD3 (TCR/CD3 complex on the cell surface) (human) (UniProt P07766). As to the kind of experiment: flow cytometry, gMFI Jurkat WT over Jurkat TCRb KO, 1 ug/mL.
For assay [14] the target is unchanged. As to the kind of experiment: flow cytometry, gMFI Jurkat WT over Jurkat TCRb KO, 10 ug/mL.
Assay [15] concerns the target CD33 on KILR-HL60 cells (UniProt P20138). As to the kind of experiment: flow cytometry on KILR-HL60 (CD33 expressing) cells, antibody at 1 ug/ml.
The target is the same in assay [16]. As to the kind of experiment: flow cytometry on KILR-HL60 (CD33 expressing) cells, antibody at 10 ug/ml.
Assay [17] has as its target Jurkat TCRb knockout cells. As to the kind of experiment: flow cytometry, Jurkat KO (TCRb knockout) cells, negative control, 1 ug/mL.
Assay [18] concerns the target Jurkat TCRb knockout cells. As to the kind of experiment: flow cytometry, Jurkat KO (TCRb knockout) cells, negative control, 10 ug/mL.
Assay [19] addresses RT3-T3.5 (TCR-KO) cells. As to the kind of experiment: flow cytometry, control antibody on RT3-T3.5 (TCR-KO) negative control cells.
For assay [20], the target named is Jurkat TCRb knockout cells. As to the kind of experiment: flow cytometry on Jurkat KO (TCRb knockout) cells, negative control, antibody at 1 ug/ml.
Assay [21] addresses Jurkat TCRb knockout cells. As to the kind of experiment: flow cytometry on Jurkat KO (TCRb knockout) cells, negative control, antibody at 10 ug/ml.

Sequence of CD33 on KILR-HL60 cells (P20138 18-364 limits assumed): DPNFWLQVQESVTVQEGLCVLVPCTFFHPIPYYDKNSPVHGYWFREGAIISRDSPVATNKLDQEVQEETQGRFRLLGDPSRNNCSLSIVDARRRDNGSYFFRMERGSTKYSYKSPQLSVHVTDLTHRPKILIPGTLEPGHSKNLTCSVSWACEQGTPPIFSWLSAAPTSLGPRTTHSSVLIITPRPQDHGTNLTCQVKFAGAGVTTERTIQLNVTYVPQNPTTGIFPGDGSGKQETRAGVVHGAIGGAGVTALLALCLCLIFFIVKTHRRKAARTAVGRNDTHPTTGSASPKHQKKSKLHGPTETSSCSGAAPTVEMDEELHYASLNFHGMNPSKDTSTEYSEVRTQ
Sequence of CD3 on Jurkat wild-type cells (P07766 23-207, chain 1 of 3): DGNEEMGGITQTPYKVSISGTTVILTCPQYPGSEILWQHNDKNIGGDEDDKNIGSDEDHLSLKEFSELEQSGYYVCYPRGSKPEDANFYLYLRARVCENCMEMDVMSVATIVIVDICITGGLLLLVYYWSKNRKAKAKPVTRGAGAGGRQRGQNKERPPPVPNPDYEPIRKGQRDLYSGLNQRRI
Sequence of CD3 on Jurkat wild-type cells (P04234 22-171, chain 2 of 3, further chain): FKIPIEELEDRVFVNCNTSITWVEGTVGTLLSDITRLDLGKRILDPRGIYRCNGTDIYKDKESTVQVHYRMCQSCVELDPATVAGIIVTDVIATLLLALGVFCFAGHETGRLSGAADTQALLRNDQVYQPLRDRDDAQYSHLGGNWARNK
Sequence of CD3 on Jurkat wild-type cells (P09693 23-182, chain 3 of 3, further chain): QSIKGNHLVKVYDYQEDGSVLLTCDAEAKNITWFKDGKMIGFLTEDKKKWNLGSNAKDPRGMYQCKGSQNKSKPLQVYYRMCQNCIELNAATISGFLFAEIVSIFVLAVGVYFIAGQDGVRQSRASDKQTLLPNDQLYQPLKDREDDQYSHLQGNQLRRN
Sequence of human CD3 (TCR/CD3 complex on the cell surface) (human) (P07766 23-207, chain 1 of 4): as the sequence (P07766 23-207, chain 1 of 3) above
Sequence of human CD3 (TCR/CD3 complex on the cell surface) (human) (P09693 23-182, chain 2 of 4, further chain): as the sequence (P09693 23-182, chain 3 of 3, further chain) above
Sequence of human CD3 (TCR/CD3 complex on the cell surface) (human) (P04234 22-171, chain 3 of 4, further chain): as the sequence (P04234 22-171, chain 2 of 3, further chain) above
Sequence of human CD3 (TCR/CD3 complex on the cell surface) (human) (P20963 22-164, chain 4 of 4, further chain): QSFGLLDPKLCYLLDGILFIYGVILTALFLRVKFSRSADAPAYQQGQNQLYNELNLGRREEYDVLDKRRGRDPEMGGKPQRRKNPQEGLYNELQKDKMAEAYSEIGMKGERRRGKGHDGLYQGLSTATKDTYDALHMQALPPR
Sequence of human CD3 (on the surface of Jurkat wild-type cells and of human Pan T cells) (human) (P07766 23-207, chain 1 of 4): as the sequence (P07766 23-207, chain 1 of 3) above
Sequence of human CD3 (on the surface of Jurkat wild-type cells and of human Pan T cells) (human) (P09693 23-182, chain 2 of 4, further chain): as the sequence (P09693 23-182, chain 3 of 3, further chain) above
Sequence of human CD3 (on the surface of Jurkat wild-type cells and of human Pan T cells) (human) (P04234 22-171, chain 3 of 4, further chain): as the sequence (P04234 22-171, chain 2 of 3, further chain) above
Sequence of human CD3 (on the surface of Jurkat wild-type cells and of human Pan T cells) (human) (P20963 22-164, chain 4 of 4, further chain): as the sequence (P20963 22-164, chain 4 of 4, further chain) above
Sequence of human CD3 (on human Pan-T cells or donor PBMC) (human) (P07766 23-207, chain 1 of 4): as the sequence (P07766 23-207, chain 1 of 3) above
Sequence of human CD3 (on human Pan-T cells or donor PBMC) (human) (P04234 22-171, chain 2 of 4, further chain): as the sequence (P04234 22-171, chain 2 of 3, further chain) above
Sequence of human CD3 (on human Pan-T cells or donor PBMC) (human) (P09693 23-182, chain 3 of 4, further chain): as the sequence (P09693 23-182, chain 3 of 3, further chain) above
Sequence of human CD3 (on human Pan-T cells or donor PBMC) (human) (P20963 22-164, chain 4 of 4, further chain): as the sequence (P20963 22-164, chain 4 of 4, further chain) above
Sequence of Gemtuzumab (antibody) (HC): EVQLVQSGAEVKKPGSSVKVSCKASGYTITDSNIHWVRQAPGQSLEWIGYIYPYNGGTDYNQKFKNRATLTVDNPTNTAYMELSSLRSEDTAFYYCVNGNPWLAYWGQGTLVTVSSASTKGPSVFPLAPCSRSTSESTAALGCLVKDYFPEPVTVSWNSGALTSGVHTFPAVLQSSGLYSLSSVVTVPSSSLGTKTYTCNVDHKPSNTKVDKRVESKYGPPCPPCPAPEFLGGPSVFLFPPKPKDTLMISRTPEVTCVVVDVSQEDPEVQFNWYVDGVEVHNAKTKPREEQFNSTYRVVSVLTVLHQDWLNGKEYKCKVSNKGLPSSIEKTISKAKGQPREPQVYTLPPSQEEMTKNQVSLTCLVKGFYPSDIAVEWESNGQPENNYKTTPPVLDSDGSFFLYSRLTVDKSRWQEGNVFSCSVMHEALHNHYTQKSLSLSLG
Sequence of Gemtuzumab (antibody) (LC): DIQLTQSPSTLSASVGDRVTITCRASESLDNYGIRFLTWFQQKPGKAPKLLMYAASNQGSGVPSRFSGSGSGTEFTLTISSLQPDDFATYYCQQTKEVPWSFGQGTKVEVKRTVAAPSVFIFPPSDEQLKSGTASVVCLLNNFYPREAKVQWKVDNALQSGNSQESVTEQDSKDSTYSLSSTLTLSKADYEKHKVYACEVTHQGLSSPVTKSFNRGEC

Turning to Gemtuzumab (antibody), in assay [1], the Cytokine Release Assay (IFNγ), Donor 0, gMFI max stood at 5340 gMFI; the Cytokine Release Assay (IFNγ), Donor 1, gMFI max worked out at 4630 gMFI; the Cytokine Release Assay (IFNγ), Donor 2, gMFI max stood at 3580 gMFI; the Cytokine Release Assay (IFNγ), Donor 3, gMFI max was 4480 gMFI.
As for Isotype Control (antibody), the gMFI in [2] is 1710 gMFI; in assay [3], 4370 gMFI; with RT3-T3.5 (TCR-KO) cells [4] it was 1820 gMFI.
Regarding OKT3 (antibody), the results for the % Positive in assay [5] and in [6] were 99.6% and 99.9%, respectively. In addition, the gMFI in [5] was determined as 603000 gMFI; in assay [6], 394000 gMFI; in assay [7] it was 54000 gMFI; in [8], 45200 gMFI; in assay [9], 72300 gMFI; in [10], 300000 gMFI. Also, the gMFI in [17] was determined as 4900 gMFI; in assay [18], 4070 gMFI; in the assay with RT3-T3.5 (TCR-KO) cells [19] it was 4220 gMFI. The flow cytometry signal in assay [11] came to 82100; in assay [12], 35800; with CD33 on KILR-HL60 cells [15] it was 14800; in the assay with CD33 on KILR-HL60 cells [16], 11600; in [20], 5180; in assay [21], 3680. The Jurkat WT/KO (Fold) in assay [13] amounted to 11 fold; in assay [14], 11.1 fold.
SP34 (antibody): the gMFI in assay [9] came out at 114000 gMFI; in [10], 333000 gMFI; with RT3-T3.5 (TCR-KO) cells [19], 7160 gMFI.
In the case of UCHT1 (antibody), the figures for the gMFI (in assay [9]; in assay [10]; with RT3-T3.5 (TCR-KO) cells [19]) were 102000 gMFI, 359000 gMFI and 5410 gMFI, respectively.
For hIgG1 (antibody), the % Positive in assay [5] and in assay [6] was 0.8% throughout. In addition, the gMFI in [5] was 1860 gMFI; in assay [6] it was 1780 gMFI; in assay [7], 1770 gMFI; in assay [8], 1740 gMFI; in assay [17], 2020 gMFI; in [18], 1860 gMFI. Also, the flow cytometry signal came out at 2700 in [11]; 2390 in assay [12]; 34300 with CD33 on KILR-HL60 cells [15]; 30200 in the assay with CD33 on KILR-HL60 cells [16]; 2830 in assay [20]; 2620 in assay [21]. Also, the Jurkat WT/KO (Fold) in [13] and in assay [14] was 0.9 fold each time.
